Source: PMC5344670, “Cryo-EM structure of the ATP-sensitive potassium channel illuminates mechanisms of assembly and gating” (eLife, 2017)

Target: the molecule itself
Experiment: cryo-EM structure; digitonin-solubilised KATP channel complex in the presence of 1 mM ATP and 1 µM glibenclamide; single-particle analysis with C4 symmetry imposed

B1: rat Kir6.2 (natural protein)
chain: MLSRKGIIPEEYVLTRLAEDPTEPRYRTRERRARFVSKKGNCNVAHKNIREQGRFLQDVFTTLVDLKWPHTLLIFTMSFLCSWLLFAMVWWLIAFAHGDLAPGEGTNVPCVTSIHSFSSAFLFSIEVQVTIGFGGRMVTEECPLAILILIVQNIVGLMINAIMLGCIFMKTAQAHRRAETLIFSKHAVITLRHGRLCFMLRVGDLRKSMIISATIHMQVVRKTTSPEGEVVPLHQVDIPMENGVGGNSIFLVAPLIIYHVIDSNSPLYDLAPSDLHHHQDLEIIVILEGVVETTGITTQARTSYLADEILWGQRFVPIVAEEDGRYSVDYSKFGNTVKVPTPLCTARQLDEDRSLLDALTLASSRGPLRKRSVAVAKAKPKFSISPDSLS
notes: Kir6.2, rat, inwardly rectifying K+ channel family; the final model holds residues 32-356; The eLife digest calls it the mouse form; results and methods say rat; source: INS-1 cells clone 832/13 (rat insulinoma), co-infected with recombinant adenoviruses; purified with f-SUR1 (digitonin, anti-FLAG M2 agarose, FLAG peptide elution, size exclusion chromatography)
  stoichiometry N: 4
